Like-named read-outs stand apart in the source and are kept apart here.
B1: phage Mu middle operon regulator Mor (natural protein, bacteriophage Mu, UniProt P23848 1-129, looked up)
chain: MTEDLFGDLQDDTILAHLDNPAEDTSRFPALLAELNDLLRGELSRLGVDPAHSLEIVVAICKHLGGGQVYIPRGQALDSLIRDLRIWNDFNGRNVSELTTRYGVTFNTVYKAIRRMRRLKYRQYQPSLL
B2: phage Mu late gene transcription activator C (natural protein, bacteriophage Mu, UniProt P06022 1-140, looked up)
chain: MQHDLFEHDPAIRQLIGHIDNIPAPELESRWPRSVVDLIDVLENELKRQNVSNPRELARKQAVALSCFLGGRQFYIPCGDTILTALRDDLLYCQFNGRNMEELRRQYRLSQPQIYQIIARQRKLHTRRHQPDLFSPETPK

How the values were obtained:
Experiment in all cases: cryo-EM structure
[1] = target: E. coli RNA polymerase σ70 subunit (E. coli, UniProt P00579 1-613)
cryo-EM structure [2] = target: the molecule itself
cryo-EM structure [3] = target: the molecule itself; remark: listed apart in the source

Chain of E. coli RNA polymerase σ70 subunit (P00579 whole entry): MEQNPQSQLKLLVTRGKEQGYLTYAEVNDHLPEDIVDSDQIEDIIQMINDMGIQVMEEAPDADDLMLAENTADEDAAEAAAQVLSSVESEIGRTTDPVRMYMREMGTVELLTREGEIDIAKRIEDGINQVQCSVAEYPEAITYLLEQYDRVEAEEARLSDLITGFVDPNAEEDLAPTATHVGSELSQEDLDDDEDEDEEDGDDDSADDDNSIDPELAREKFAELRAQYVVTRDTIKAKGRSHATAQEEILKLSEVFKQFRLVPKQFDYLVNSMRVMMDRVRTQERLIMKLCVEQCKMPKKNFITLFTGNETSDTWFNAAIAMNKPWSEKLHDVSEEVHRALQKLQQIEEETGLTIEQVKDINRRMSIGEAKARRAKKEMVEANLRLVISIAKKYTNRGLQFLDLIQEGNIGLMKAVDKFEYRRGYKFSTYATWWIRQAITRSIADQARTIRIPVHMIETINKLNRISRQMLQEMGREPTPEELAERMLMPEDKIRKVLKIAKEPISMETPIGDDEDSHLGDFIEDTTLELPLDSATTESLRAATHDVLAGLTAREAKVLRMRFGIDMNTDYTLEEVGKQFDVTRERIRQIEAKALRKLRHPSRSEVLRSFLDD

Binder | binding result [1] | stoichiometry N (cryo-EM structure [2]) | stoichiometry N (cryo-EM structure [3])
B1 | binds | 4 | –
B2 | – | – | 4
